Paper PMC12311110 (Nature Communications, 2025)
Blank lines part the entries; values can stand above or below the molecule they belong to.

Experiments:
[1] = system: GLUT1, LAT1, KIDINS220, ATP7A, CTR1 surface levels in HeLa cells; test: Surface biotinylation and streptavidin purification: cell surface protein levels; type: cell-based, human; conditions: Hela cells transduced with GFP-RAB10 T23N; PAR+GFP = 100; mean of n = 3
Protocol: For every kind of protein extraction, buffers were pre-chilled, and cells and samples placed on ice. For basic western blot (WB), cells were lysed in ~ pH 7.2 phosphate buffered saline (PBS) with 1% (v/v) Triton X-100 and protease inhibitors (Thermo Fisher, A32955). The protein concentration was determined with a bicinchoninic acid (BCA) assay kit (Thermo Fisher, 23225) and equal amounts were denaturised (LDS Sample buffer (Thermo Fisher, NP0008), 3% β-mercaptoethanol (Sigma-Aldrich, M6250), 10 min at 95 °C) and resolved by SDS-PAGE on NuPAGE 4–12% precast gels (Invitrogen, NP0336BOX). Protein samples were then transferred onto methanol-activated polyvinylidene fluoride (PVDF) membrane (Immobilon-FL membrane, pore size 0.45μm; Millipore, IPFL00010). The membrane was blocked, then sequentially labelled with primary and secondary antibodies. Fluorescence detected by scanning with a LI-COR Odyssey scanner and Image Studio analysis software (LI-COR Biosciences). Typically, we performed WB in where a single blot is simultaneously probed with antibodies against 2 proteins of interest (distinct antibody species), followed by visualisation with the corresponding secondary antibodies conjugated to distinct spectral dyes. All steps were carried out on ice to prevent surface protein internalisation. […] The protein concentration was determined by BCA. […]

[2] = target: T1, hRetromer (Homo sapiens, UniProt O75436+Q96QK1+Q9UBQ0); test: Isothermal titration calorimetry (ITC) of binding to Retromer; conditions: ITC, 25 °C, 530 µM TBC1D13 titrated into 14 µM Retromer, mean of triplicate titrations
T1 construct: GST (pGEX4T-2, thrombin site plus linker) (N, cleaved yes); made in house; host or cells: E. coli BL21 (DE3)
Protocol: All the bacteria constructs were expressed in BL21 (DE3) cells using the autoinduction method. In brief, cultures grown in complex medium were incubated at 37 °C for 4 h, followed by overnight growth at 20 °C before harvesting for purification. […] In all cases, the soluble fractions clarified by centrifugation were loaded onto pre-equilibrated glutathione sepharose (GE healthcare) for initial purification. For Retromer, an additional Talon® resin purification step was performed to ensure the correct stoichiometry. GST-tag removal was carried out co-column overnight by adding thrombin for Human Retromer and PreScission protease for TBC1D13. The GST-tag removed fraction was further purified by size-exclusion chromatography (SEC) using a Superdex 200 (16/600) column (GE Healthcare) equilibrated with buffer containing 50 mM Tris-HCl pH 7.5, 200 mM NaCl, 2 mM β-ME.
The effect of cyclic peptide was assessed by pre-mixing 140 µM RT-D1 into 14 µM Retromer before titrating with 1 mM of native DENND4C1189-1206 peptide. For the binding experiment between Retromer and TBC1D13, 530 µM of TBC1D13 was titrated into 14 µM Retromer. The effect of the cyclic peptide was tested using the same concentration of RT-D1 as described above. All ITC experiments consisted of an initial 0.4 μl (not used in data processing), followed by 12 serial injections of 3.22 μl each with 180 sec intervals. […]

B1: GFP-RAB10T23N (protein, UniProt P61026 1-200, looked up, variant T23N)
Ras-related protein Rab-10: MAKKTYDLLFKLLLIGDSGVGKNCVLFRFSDDAFNTTFISTIGIDFKIKTVELQGKKIKLQIWDTAGQERFHTITTSYYRGAMGIMLVYDITNGKSFENISKWLRNIDEHANEDVERMLLGNKCDMDDKRVVPKGKGEQIAREHGIRFFETSAKANINIEKAFLTLAEDILRKTPVKEPNSENVDISSGGGVTGWKSKCC
modifications: GFP fusion
CTR1 Surface (LAT1 normalized) [1]: 77.05

-TΔS [2]: 1.0 ± 1.4 kcal/mol
Kd ([2]; single-site binding model, read-out: Kd): 6.3 ± 1.2 µM
B2: hTBC1D13TBC: recombinant full-length human TBC1D13, RAB35 GAP, expressed in bacteria (protein)
chain: MSSLHKSRIADFQDVLKEPSIALEKLRELSFSGIPCEGGLRCLCWKILLNYLPLERASWTSILAKQRELYAQFLREMIIQPGIAKANMGVSREDVTFEDHPLNPNPDSRWNTYFKDNEVLLQIDKDVRRLCPDISFFQRATDYPCLLILDPQNEFETLRKRVEQTTLKSQTVARNRSGVTNMSSPHKNSVPSSLNEYEVLPNGCEAHWEVVERILFIYAKLNPGIAYVQGMNEIVGPLYYTFATDPNSEWKEHAEADTFFCFTNLMAEIRDNFIKSLDDSQCGITYKMEKVYSTLKDKDVELYLKLQEQNIKPQFFAFRWLTLLLSQEFLLPDVIRIWDSLFADDNRFDFLLLVCCAMLMLIREQLLEGDFTVNMRLLQDYPITDVCQILQKAKELQDSK
modifications: left off: GST, end not stated, cleaved
notes: recombinant full-length human TBC1D13, RAB35 GAP, expressed in bacteria
